pKd: −log10 of the molar value. Read-outs that look alike come from different tables or passages of the source.
Columns and labels:
[1] = biological target: 11S, large fragment of a split luciferase
[2] = biological target: 11S, large fragment of a split luciferase; remark: listed apart in the source
[3] = biological target: 11S, large fragment of a split luciferase; remark: listed apart in the source
[4] = biological target: 11S, large fragment of a split luciferase; remark: listed apart in the source
[5] = biological target: 11S, large fragment of a split luciferase; remark: listed apart in the source
[6] = biological target: 11S, large fragment of a split luciferase; remark: listed apart in the source
[7] = biological target: 11S, large fragment of a split luciferase; remark: listed apart in the source
[8] = biological target: 11S, large fragment of a split luciferase; remark: listed apart in the source

For “PINK1(3EA) LDD (from UniProt Q9BXM7 78-581)”, the pKd [1] was 6.55.

“PINK1Δ(1-150) DDL (from UniProt Q9BXM7 151-581)” was tested, and the pKd [2] was 6.35.

Work on “PINK1Δ(1-50) DDL (from UniProt Q9BXM7 51-581)” yielded a pKd [3] of 6.62.

“PINK1(ALALAL) DDL (from UniProt Q9BXM7 78-581)” showed a pKd [4] of 6.88.

“PINK1 DDL I111S (from UniProt Q9BXM7 78-581)” showed a pKd [5] of 6.84.

In the case of “PINK1Δ(1-91) DDL (from UniProt Q9BXM7 92-581)”, the pKd [6] was 6.73.

In the case of “PINK1(3EA) DLD (from UniProt Q9BXM7 78-581)”, the pKd [7] was 7.03.

“PINK1(3EA) DDL (from UniProt Q9BXM7 78-581)” showed a pKd [8] of 6.15.
